Laboratory results published in patent publication US20030148958A1 (PROCTER AND GAMBLE, published 2003).
Ends that are not written are not given here.

T1: CRF2R
T1 sequence (Q13324 whole entry, species assumed, looked up): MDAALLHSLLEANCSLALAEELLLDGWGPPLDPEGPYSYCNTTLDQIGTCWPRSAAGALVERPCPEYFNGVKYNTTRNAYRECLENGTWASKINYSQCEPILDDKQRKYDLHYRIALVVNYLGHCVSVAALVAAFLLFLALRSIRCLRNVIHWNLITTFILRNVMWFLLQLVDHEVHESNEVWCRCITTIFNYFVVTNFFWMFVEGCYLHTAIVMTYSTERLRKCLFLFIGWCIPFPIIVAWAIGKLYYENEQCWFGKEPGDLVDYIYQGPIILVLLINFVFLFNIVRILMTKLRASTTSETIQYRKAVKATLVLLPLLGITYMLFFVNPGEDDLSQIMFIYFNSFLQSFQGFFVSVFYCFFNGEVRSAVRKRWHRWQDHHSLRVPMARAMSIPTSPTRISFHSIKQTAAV


Assays:
CRF2R = biological target: T1, CRF2R; test: cell-based or functional assay
CRF1R = test: cell-based or functional assay
Throughout, for CRF1R Emax %: reference of the scale not given here.
Throughout, for CRF2R Emax %: reference of the scale not given here.

Binder	CRF2R EC50 (CRF2R) [nM]	CRF2R Emax % (CRF2R) [%]	CRF1R EC50 (CRF1R) [nM]	CRF1R Emax % (CRF1R) [%]
DNPSLSIDLPLFLLRTLLELEKTQSQRERAEQNARIFDRV-NH2 [SEQ ID NO 336]	17.8	100	1000	59.9
PSLSIDLPLFLLRTLLELEKTQSQRERAEQNARIFARV-NH2 [SEQ ID NO 331]	9.85	100	1000	78.7
DNPSLSIDLPLLLLRTLLELEKTQSQRERAEQNARIFARV-NH2 [SEQ ID NO 341]	8.83	95.5	850	82.3
DNPSLSIDLPLLLLRTLLELEKTQSQRERAEQNAQIFAHV-NH2 [SEQ ID NO 324]	17.2	100	1000	46.6
DNPSLSIDLPQYLLRTLLELARTQSQRERAEQNAIIFASV-NH2 [SEQ ID NO 339]	100	47.9	1000	13.2
ZGPPISIDLPLQLLRKVIEIEKQEKEKQQATTNARILARV (C-terminal amide) [SEQ ID NO 320]	19.1	100	718	68.8
ZGPPISIDLPFQLLRKTIEIEKQEKEKQQATTNARLLDRV (C-terminal amide) [SEQ ID NO 321]	19.6	86.8	1000	33.8
ZGPPISIDLPFFLLRKVIEIEKQEKEKQQAANNALLLATI (C-terminal amide) [SEQ ID NO 317]	9.3	88.3	188	100
ZGPPISIDLPFFLLRKMIEIEKQEKEKQQAANNALLLATI (C-terminal amide) [SEQ ID NO 319]	8.5	95	106	88.3
ZGPPISIDLPFFLLRKMIEIEKQEKEKQQAANNALLLDTI (C-terminal amide) [SEQ ID NO 318]	9.95	95.4	134	92.8
PSLSIDLPLLLLRTLLELEKTQSQRERAEQNARIFARV-NH2 [SEQ ID NO 333]	9.85	96.9	1000	43.8
DNPSLSIDLPLILLRTLLELEKTQSQRERAEQNARIFARV-NH2 [SEQ ID NO 335]	28.1	91	1000	49.5
DNPSLSIDLPLFLLRTLLELEKTQSQRERAEQNAIIFASV-NH2 [SEQ ID NO 343]	13.6	96.5	783	62.5
DNPSLSIDLPLILLRTLLELARTQSQRERAEQNARIFARV-NH2 [SEQ ID NO 330]	6	93.7	1000	86.8
DNPSLSIDLPLFLLRTLLELARTQSQRERAEQNARIFARV-NH2 [SEQ ID NO 329]	5.15	98.3	1000	98.4
DNPSLSIDLPLQLLRTLLELEKTQSQRERAEQNAIIFASV-NH2 [SEQ ID NO 342]	20.2	92.2	1000	19.6
IVLSLDVPIGLLQILLEQEKARAAREQATTNARILARV-NH2 [SEQ ID NO 325]	11.7	100	100	5
DNPSLSIDLPLFLLRTLLELEKTQSQRERAEQNARIFARV-NH2 [SEQ ID NO 334]	13.2	93.5	1000	82.6
DNPSLSIDLPLLLLRTLLELEKTQSQRERAEQNANIFANV-NH2 [SEQ ID NO 326]	33.7	100	1000	30.1
PSLSIDLPLLLLRTLLELEKTQSQRERAEQNAIIFASV-NH2 [SEQ ID NO 344]	4.3	–	650	–
IVLSLDVPIGLLQKMIEIEKQEKEKQQATTNARILARV-NH2 [SEQ ID NO 322]	23.1	96.5	1000	10.7
DNPSLSIDLPLLLLRTLLELEKTQSQRERAEQNAEIFAEV-NH2 [SEQ ID NO 323]	19.6	100	1000	36.9
DNPSLSIDLPLLLLRTLLELEKTQSQRERAEQNAQIFAQV-NH2 [SEQ ID NO 327]	28.4	100	1000	36.5
DNPSLSIDLPLLLLRTLLELEKTQSQRERAEQNAHIFAHV-NH2 [SEQ ID NO 328]	11.7	95.7	1000	30.7
DNPSLSIDLPLLLLRTLLELARTQSQRERAEQNARIFARV-NH2 [SEQ ID NO 340]	7.99	100	740	96
DNPSLSIDLPLLLLRTLLELEKTQSQRERAEQNARIFDRV-NH2 [SEQ ID NO 338]	19.3	77.5	1000	41.1
DNPSLSIDLPLILLRTLLELEKTQSQRERAEQNARIFDRV-NH2 [SEQ ID NO 337]	23.9	86.7	1000	36.5
PSLSIDLPLILLRTLLELEKTQSQRERAEQNARIFARV-NH2 [SEQ ID NO 332]	9.95	100	1000	61.3
